Reference: article PMC4022879
Positions count from the first letter of the chain named.

B1: corn Hageman factor inhibitor (CHFI), control protein from Zea mays seeds (natural protein)
chain: SAGTSCVPGWAIPHNPLPSCRWYVTSRTCGIGPRLPWPELKRRCCRELADIPAYCRCTALSILMDGAIPPGPDAQLEGRLEDLPGCPREVQRGFAATLVTEAECNLATIS
B2: CHFI-1245, full-size CHFI with Cys29 substituted by Asp (natural protein)
chain: B1 chain with C29D
B3: CHFI-12345, recombinant full-size CHFI without any truncations (natural protein)
chain: B1 chain
B4: CHFI-2345 (domain or fragment)
chain: IPHNPLPSCRWYVTSRTCGIGPRLPWPELKRRCCRELADIPAYDRCTALSILMDGAIPPGPDAQLEGRLEDLPGCPREVQRGFAATLVTEAECNLATISGVAECPWILGGGTMPSK

Target: activated coagulation factor XII (FXIIa)
Experiment: chromogenic enzyme inhibition assay; 1 nM FXIIa, 500 μM S2302, 37 °C, 110 mM Tris-HCl pH 8.0, 250 mM NaCl, 1% BSA; residual activity in triplicate at at least six inhibitor concentrations; Ki from a linear fit of 1/v against inhibitor concentration

Binder	Ki [nM]
B1	1
B2	50
B3	1.1
B4	1

Target: bovine pancreatic trypsin (bovine)
Experiment: chromogenic enzyme inhibition assay; 1 nM trypsin, 500 μM S2765, 37 °C, 110 mM Tris-HCl pH 8.0, 250 mM NaCl, 1% BSA; residual activity in triplicate at at least six inhibitor concentrations; Ki from a linear fit of 1/v against inhibitor concentration

Sequence of bovine pancreatic trypsin (bovine) (P00760 24-246): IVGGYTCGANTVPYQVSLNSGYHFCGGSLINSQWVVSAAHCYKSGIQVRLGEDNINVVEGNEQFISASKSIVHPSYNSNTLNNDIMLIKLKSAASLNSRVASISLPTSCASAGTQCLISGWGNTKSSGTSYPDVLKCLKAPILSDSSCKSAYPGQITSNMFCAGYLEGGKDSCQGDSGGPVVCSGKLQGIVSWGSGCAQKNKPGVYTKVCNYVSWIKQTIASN

Binder	Ki [nM]
B1	2.1
B2	250
B3	1.3
B4	2.9
